Test results from US20230087600A1 (Bristol-Myers Squibb, published 2023).

T1: human IL-10 receptor (IL-10R) on T cells and B cells of human whole blood (human, UniProt Q13651 22-578; Q08334 20-325)
T1 sequence (looked up) 1: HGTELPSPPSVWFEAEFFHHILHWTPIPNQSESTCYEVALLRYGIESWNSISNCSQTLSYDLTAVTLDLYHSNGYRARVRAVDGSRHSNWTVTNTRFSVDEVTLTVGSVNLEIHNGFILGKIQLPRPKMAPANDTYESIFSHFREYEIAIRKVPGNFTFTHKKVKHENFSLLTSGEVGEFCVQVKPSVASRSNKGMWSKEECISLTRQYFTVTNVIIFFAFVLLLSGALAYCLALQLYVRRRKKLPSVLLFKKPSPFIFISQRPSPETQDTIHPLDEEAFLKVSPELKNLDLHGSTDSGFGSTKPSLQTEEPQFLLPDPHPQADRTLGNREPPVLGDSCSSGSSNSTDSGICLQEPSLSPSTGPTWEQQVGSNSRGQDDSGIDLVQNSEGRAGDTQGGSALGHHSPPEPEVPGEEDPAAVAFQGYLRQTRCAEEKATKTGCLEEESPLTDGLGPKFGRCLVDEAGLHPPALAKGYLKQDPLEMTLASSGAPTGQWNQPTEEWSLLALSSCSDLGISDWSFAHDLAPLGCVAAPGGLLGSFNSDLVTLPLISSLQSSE
T1 sequence (looked up) 2: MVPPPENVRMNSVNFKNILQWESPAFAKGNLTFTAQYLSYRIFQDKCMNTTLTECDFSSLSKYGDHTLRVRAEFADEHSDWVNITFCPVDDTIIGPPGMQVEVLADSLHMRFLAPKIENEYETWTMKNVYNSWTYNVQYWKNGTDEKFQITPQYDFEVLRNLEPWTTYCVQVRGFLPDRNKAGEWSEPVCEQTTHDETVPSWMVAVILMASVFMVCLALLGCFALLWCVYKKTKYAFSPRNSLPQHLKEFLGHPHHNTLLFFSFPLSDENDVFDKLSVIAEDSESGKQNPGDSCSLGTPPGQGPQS


Molecular target: T1, human IL-10 receptor (IL-10R) on T …
Test: cell-based or functional assay

Binder	STAT3 phosphorylation (pY705), flow cytometry, CD3+ T cells in human whole blood, EC50 [pM]	STAT3 phosphorylation (pY705), flow cytometry, CD19+ B cells in human whole blood, EC50 [pM]
wildtype human IL-10 (ligand) SPGQGTQSENSCTHFPGNLPNMLRDLRDAFSRVKTFFQMKDQLDNLLLKESLLEDFKGYLGCQALSEMIQFYLEEVMPQAENQDPDIKAHVNSLGENLKTLRLRLRRCHRFLPCENKSKAVEQVKNAFNKLQEKGIYKAMSEFDIFINYIEAYMTMKIRN	47.7	116
Fc-IL-10 (human IgG1.3f Fc domain - GGGGSSGGGGSGGGGSGGGGS linker - wildtype human IL-10) (Fc fusion) DKTHTCPPCPAPEAEGAPSVFLFPPKPKDTLMISRTPEVTCVVVDVSHEDPEVKFNWYVDGVEVHNAKTKPREEQYNSTYRVVSVLTVLHQDWLNGKEYKCKVSNKALPAPIEKTISKAKGQPREPQVYTLPPSREEMTKNQVSLTCLVKGFYPSDIAVEWESNGQPENNYKTTPPVLDSDGSFFLYSKLTVDKSRWQQGNVFSCSVMHEALHNHYTQKSLSLSPGGGGGSSGGGGSGGGGSGGGGSSPGQGTQSENSCTHFPGNLPNMLRDLRDAFSRVKTFFQMKDQLDNLLLKESLLEDFKGYLGCQALSEMIQFYLEEVMPQAENQDPDIKAHVNSLGENLKTLRLRLRRCHRFLPCENKSKAVEQVKNAFNKLQEKGIYKAMSEFDIFINYIEAYMTMKIRN	222	352
